Results on three proteins are retold here after paper PMC3386781.

In general, Km refers to the substrate concentration at which the rate is half of its maximum. In general, Vmax refers to the rate approached at saturating substrate.

Changes are numbered by the printed parent chain. Names may count otherwise.

Sequences and labels used below:
B1: AtHTMT1 (AtHOL1; halide/thiocyanate methyltransferase, HTMT) (Arabidopsis thaliana) (protein)
chain: MAEEQQNSDQSNGGNVIPTPEEVATFLHKTVEEGGWEKCWEEEITPWDQGRATPLIVHLVDTSSLPLGRALVPGCGGGHDVVAMASPERFVVGLDISESALAKANETYGSSPKAEYFSFVKEDVFTWRPTELFDLIFDYVFFCAIEPEMRPAWAKSMYELLKPDGELITLMYPITDHVGGPPYKVDVSTFEEVLVPIGFKAVSVEENPHAIPTRKGKEKLGRWKKIN
B2: AtHTMT1 (AtHOL1; halide/thiocyanate methyltransferase, HTMT) (Arabidopsis thaliana; V23C) (protein)
chain: B1 chain with V23C
B3: AtHTMT1 (AtHOL1; halide/thiocyanate methyltransferase, HTMT) (Arabidopsis thaliana; Y172F) (protein)
chain: B1 chain with Y172F

Substrate in the first series: N#CS
Put plainly: purified protein. Conditions: co-substrate SAM; tag removed.
B1: the Km worked out at 0.099 ± 0.020 mM and the Vmax was determined as 0.0436 µmol/min/mg.

As to B2, the Km is 0.103 ± 0.009 mM and the Vmax was 0.0434 µmol/min/mg.

Regarding B3, the Km was determined as 0.141 ± 0.009 mM and the Vmax is 0.046 µmol/min/mg.

Substrate in another series: Br
Put plainly: purified protein. The note with it: co-substrate SAM; tag removed.
For B1, the Km came out at 24.87 ± 2.785 mM and the Vmax was determined as 0.0114 µmol/min/mg.

Turning to B2, the Km was found to be 21.06 ± 1.883 mM and the Vmax was determined as 0.0124 µmol/min/mg.

As to B3, the Km is 30.16 ± 2.942 mM and the Vmax came to 0.0114 µmol/min/mg.
